Reference: the nanobody polyreactivity screen of Harvey et al. (2022)

assay: yeast display, Sf9 membrane polyspecificity reagent, FACS + sequencing; frameworks hold sequencing errors
Outline: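 Genes from sorted yeast were amplified by colony PCR, read by MiSeq 2 × 250 sequencing and filtered on CDR length. These cells carried a synthetic nanobody library in Saccharomyces cerevisiae BJ5465 and were sorted by FACS into low and high (top ~1%) gates on anti-HA and streptavidin fluorescence. Polyreactivity is labelled according to the gate of origin.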

Sequence	polyreactivity (PSR sort gate)
QVQLVESGGGLVQAGGSLRLSCAASGRIFLDYAMGWYRQAPGKERELVAAIRYSGVGTYYADSVKGRFTISRDNAKNTVYLQMNSLKPEDTAVYYCNAVTKVGYLRRRDYWGQGTQVTVSS	high polyreactivity
QVQLVESGGGLVQAGGSLRLSCAASGRIFLFYAMGWYRQAPGKERELVAAISSTDDTYYADSVKGRFTISRDNAKNTVYLQMNSLKPEDTAVYYCAAYSIISQSEMYYWGQGTQVTVSS	low polyreactivity
QVQLVESGGGLVQAGGSLRLSCAASGRIFLINAMGWYRQAPGKERELVAAITVSGTRTYYADSVKGRFTISRDNAKNNVYLQMNSLKPEDTAVYYCAAKLQYRWTCGYYYWGQGTQVTVSS	high polyreactivity
QVQLVESGGGLVQAGGSLRLSCAASGRIFLINAMGWYRQAPGKESEFVAAIRTGGNTYYADSVKGRFTLSRDNAKNTVYLQMNSLKPEDTAVYYCAADRIYPYYRWSGAHRSDVDYWGQGTQVTVSS	low polyreactivity
QVQLVESGGGLVQAGGSLRLSCAASGRIFLKYTLGWYRQAPGKERELVAAISRGGSTYYADSVKGRFTISRDNAKNTVYLQMNSLKPEDSAVYYCAATSYRRTGYNYWGQGTQVTVSS	high polyreactivity
QVQLVESGGGLVQAGGSLRLSCAASGRIFLKYTMGLYRQAPGKERELVAAISRGGSTYYADSVKGRFTISRDNAKNTVYLQMNRLKPEDTAVYYCAATSYRRTGYNYWGQGTQVTVSS	high polyreactivity
QVQLVESGGGLVQAGGSLRLSCAASGRIFLQYAMGWYRPAPGKERELVAAISRSGGSTYYADSVKGRFTISRDTAKNSVYLQMNSQKPEDTAVYYCAAALFGNRYYYWGQGTQVTVSS	low polyreactivity
QVQLVESGGGLVQAGGSLRLSCAASGRIFLQYAMGWYRQAPGKERELVAGISLRGGSTYYADSVKGRFTISRDNAKNTVYLQMNSLKPEDTAVYYCAADVIVTVETNTSGPSFTEYDYWGQGTQVTVSS	low polyreactivity
QVQLVESGGGLVQAGGSLRLSCAASGRIFLRNAMGWYRQAPGKERELVATITSRGGSTYYADSVKGRFTISRDNAKNTVYLQMNSLKQEDTAVYYCAADPRRYRGFGYVYGGFYYWGQGTQVTVSS	low polyreactivity
QVQLVESGGGLVQAGGSLRLSCAASGRIFLRYAMGWYRQAPGKERELVAVISSGGSTYYADSVKGRFTISSDNAKNTVYLQMNSLKPEDSAVYYCAASRHDSRYQYDYWGQGTQVTVSS	high polyreactivity
QVQLVESGGGLVQAGGSLRLSCAASGRIFLRYTMGWYRQAPGKDRELVAAISGGGSTNYADSVKGRFTISRDNAKNTVYLQMNSLKPEDTAVYYCAADYIWLSHPYRRVDFYYWGQGTQVTVSS	low polyreactivity
QVQLVESGGGLVQAGGSLRLSCAASGRIFLSNALGWYRQAPGKERELVAAINSGGNTDYADSVKGRFTISRDNAKNTVYLQMNSLKPEDTAVYYCAADAFSWDHDYWGQGTQVTVSS	low polyreactivity
QVQLVESGGGLVQAGGSLRLSCAASGRIFLTYAMGWYRPAPGKERELVAAIRSRSGTTYYADSVKGRFTISRDNAKNTVYLQMNRLKPEDTAVFYCAAGGKSRSYYWGQGTQVTVSS	high polyreactivity
QVQLVESGGGLVQAGGSLRLSCAASGRIFLVNAMGWYRQAPGKERELVAAINGSGGSTYYADSVKGRFTISRDNAKNTVYLQMNSLKPEDTAVYYCAAKYVYSVGNYRYDYWGQGTQVTVSS	low polyreactivity
QVQLVESGGGLVQAGGSLRLSCAASGRIFLVNAMGWYRQAPGKERELVAAISWSSGSTYYADSVKGSITISRDNAKNTVYLQMNSLKPEDTAVYYCAADGSSRGRYRYGYWGQGTQVTVSS	high polyreactivity
QVQLVESGGGLVQAGGSLRLSCAASGRIFLVYAMGWYRQAPGKERELVAAISWRGGRTYYADSVKGRFTISRDNAKNTFYLQMNSLKPEDTAVYYCAAASKYSQFEYDYWGQGTQVTVSS	high polyreactivity

Sequence	polyreactivity (PSR sort gate)
QVQLVESGGGLVQAGGSLRLSCAASGRIFLVYAMGWYRQAPGKERELVAAISYSGGRTYYADSVKGRFTISRDNAKNTVYLQMNSLKPEDTAVYYCAAKRITYYGGGRFYYWGQGTQVTVSS	high polyreactivity
QVQLVESGGGLVQAGGSLRLSCAASGRIFLWYAMGWYRQAPGKERELVASITRSGVTTYYADSVKGRFTISRDNAKNTVYLQMNSLKPEDTAVYYCNKDFRGDAIKLDVNYWGQGTQVTVSS	low polyreactivity
QVQLVESGGGLVQAGGSLRLSCAASGRIFLYNAMGWYRQAPGKERELVAAITSSGSSTYYADSVKGRFTISRDNAKNTVYLQMNSLKPEDTAVYYCNRYTRKTRRVDYWGQGTQVTVSS	high polyreactivity
QVQLVESGGGLVQAGGSLRLSCAASGRIFLYYAMGWYRQAPGKERELVAAISRRGASTYYADSVKGRFTITRDNAKNNVYLQMHSLKPEDTAVYYCGTVPGKSGDYWGQGTQLTVSS	high polyreactivity
QVQLVESGGGLVQAGGSLRLSCAASGRIFMNYDMGWYRQPPGKERELVADISISGSTDYADSVKGRFTISRDNAKNTVYLQMNSLKPEDTAVYYCATSFYVSDYYVPYEMGYWGQGTQVTVSS	low polyreactivity
QVQLVESGGGLVQAGGSLRLSCAASGRIFNAYATGWYRKAPGKERELVAAISSIGGRTYYADSVKGRFTISRDNAKNTVYLQMNSLKPEETAVYYCAARRRSRQYRYDYWGQGTQVTVSS	high polyreactivity
QVQLVESGGGLVQAGGSLRLSCAASGRIFNDYAMGWYRPAPGKESELVANYADSVKGRFTISRDNAKNTVYLQMNSLKPEDTAVFYCAADFPSFPDFRPEYDYWGQGTQVTVSS	low polyreactivity
QVQLVESGGGLVQAGGSLRLSCAASGRIFNEYGMGWYRQAPGKERELVAAITWGGGSTYYADSVKGRFTISRDNAKNTVYVQMNSLKPEDTAVYYCNAVSERPIPWYYYWGQGTQVTVSS	low polyreactivity
QVQLVESGGGLVQAGGSLRLSCAASGRIFNFYAMGWYRQAPGKERELVASITSGGRTSYADSVKGRFTISRDNAKNTVYLQMNSLKPEDTAVYYCAAVLFGYPRTIGTWYDRYYYWGQGTQVTVSS	high polyreactivity
QVQLVESGGGLVQAGGSLRLSCAASGRIFNGNAMGWYRQAPGKEREFVAAITWNGGRTYYADSVKGRFTISRDYAKNTVYLQMNSLKPEDTAVYYCNADPYHRRSSGDYWGQGTQVTVSS	high polyreactivity
QVQLVESGGGLVQAGGSLRLSCAASGRIFNGNAMGWYRQAPGKERELVAAISTSGGRTYYADSVKGRFTISRDNAKNTVYLQMNSLKPEDTAVYYCAARYFRRDYIDYDYWGQGTQVTVSS	low polyreactivity
QVQLVESGGGLVQAGGSLRLSCAASGRIFNGNAMGWYRQAPGKERELVAAISVSGGSTYYADSVKGRFTISRDNAKNTVYLQMNSLKPEDTAVYYCAARTSSYSFPYAYNYWGQGTQVTVSS	high polyreactivity
QVQLVESGGGLVQAGGSLRLSCAASGRIFNGYAMGWYRQAPGKERELVAAINSSGGSTYYADSVKGRFTISRDNAKNTVYLQMNSLKPEDTAVYYCARVSYHYRTYDYWGQGTQVTVSS	high polyreactivity
QVQLVESGGGLVQAGGSLRLSCAASGRIFNIYALGWYRQAPGKERELVAAISGSGSTYYADSVKGRFTISRDNAKNTVYLQMNSLKPEDTAVYYCAARSLVRYYHNANYYPYYYWGQGTQVTVSS	high polyreactivity
QVQLVESGGGLVQAGGSLRLSCAASGRIFNKYTMGWYRQAPGKERELVAAIRGRGGSTYYADSVKGRFTISRDNAKNTVYLQMNSLKPEDTAVYYCAADSGPFYSKTPTRYGYWGQGTQVTVSS	high polyreactivity
